Laboratory results taken from article PMC12691818.

Columns and labels:
[1] = biological target: Xenopus laevis PP1c (XePP1c) (Xenopus laevis (endogenous in oocytes))
[2] = biological target: Xenopus laevis PP1c (XePP1c) (Xenopus laevis (endogenous in oocytes)); remark: listed apart in the source
[3] = biological target: Xenopus laevis PP1c (XePP1c) (Xenopus laevis (endogenous in oocytes)); remark: listed apart in the source
[4] = biological target: PfPP1c (Plasmodium falciparum Protein Phosphatase 1 catalytic subunit, recombinant) (Plasmodium falciparum) (UniProt Q8ILV1)

Substance: HA-tagged PbRpt3 protein (full-size 45 kDa native PbRpt3 translated from microinjected cRNA in Xenopus oocytes) (from UniProt A0A509AIQ8 1-395) (natural protein)
- percentage of GVBD of progesterone-treated Xenopus oocytes microinjected with PbRpt3 cRNA (control 80%) [1]: 1.7 % GVBD
- percentage of GVBD of progesterone-treated Xenopus oocytes microinjected with PbRpt3 cRNA (PG alone 86.7%) [2]: 1.7 % GVBD

Substance: PbRpt3 ATP-binding site mutant (HA-tagged PbRpt3 substituted for alanines in positions K188, D241, N288 and Q356) (natural protein)
- percentage of GVBD of progesterone-treated Xenopus oocytes microinjected with PbRpt3 cRNA mutated for the ATP-binding sites (PbRpt3 1.7%, PG-treated oocytes 80.8%) [3]: 39.2 % GVBD

Substance: PbRpt3-30 kDa (recombinant truncated PbRpt3, aa 131-395) (domain or fragment)
- PfPP1c phosphatase activity on pNPP; 37.5 to 600 pmol PbRpt3-30 kDa preincubated with 1 µg PfPP1c; value at 600 pmol (% PP1c activity) [4]: > 400

Substance: PbRpt3-KATA (HA-tagged PbRpt3 mutated 200-KVTF-203 to 200-KATA-203) (natural protein)
- percentage of GVBD of progesterone-treated Xenopus oocytes microinjected with PbRpt3-KATA cRNA (control 80%) [1]: 26.6 % GVBD

Substance: PbRpt3-KATA/RKAEA (HA-tagged PbRpt3 with both RVxF motifs mutated) (natural protein)
- percentage of GVBD of progesterone-treated Xenopus oocytes microinjected with PbRpt3-KATA/RKAEA cRNA (control 80%) [1]: 76 % GVBD

Substance: PbRpt3-RKAEA (HA-tagged PbRpt3 mutated 305-RKIEF-309 to 305-RKAEA-309) (natural protein)
- percentage of GVBD of progesterone-treated Xenopus oocytes microinjected with PbRpt3-RKAEA cRNA (control 80%) [1]: 23.3 % GVBD

Substance: PfI2 (inhibitor of PP1c, Plasmodium falciparum) (natural protein)
- PfPP1c phosphatase activity on pNPP; 37.5 to 600 pmol PfI2 with 1 µg PfPP1c; value at 600 pmol [4]: 60%
